Assay results taken from publication PMC4948710.
pKd: −log10 of the molar value.

Key:
[1] = target: Nematostella vectensis β-catenin, full length (Nematostella vectensis); experiment: ITC
[2] = target: F-actin polymerised from chicken muscle G-actin (chicken) (UniProt P68139); experiment: co-sedimentation

pKd [1] | pKd [2] | Substance
8.10 |  | Nematostella vectensis Cadherin-1 cytoplasmic region (domain or fragment)
8.89 |  | Nematostella vectensis Cadherin-2 cytoplasmic region (domain or fragment)
 | < 4.92 | Nematostella vectensis α-catenin lacking the insert (residues 638-1,021 deleted) (domain or fragment)
 | 6.10 | Nematostella vectensis α-catenin, full length (natural protein)
